4 molecules from patent publication US20110091386A1 (GENE TECHNO SCIENCE, published 2011) can be followed below.

Test [1] concerns the target T1, hOPN5 peptide CVDTYDGRGDSVVYGLRS conjugated to bovine serum albumin (human, N-terminal Cys coupled to BSA (via EMCS in section 6.2)).
T1 construct: also called hOPN5-BSA; hOPN-BSA
T1 peptide: CVDTYDGRGDSVVYGLRS
The test is described as follows: ELISA, hOPN5-BSA coated at 1 ug/ml, HRP anti-human gamma chain, A405. On the procedure:
The affinity of humanized 35B6 IgG1/κ was compared to that of chimeric 35B6 IgG1/κ by ELISA. As an antigen, synthetic oligopeptide ([…] (SEQ ID NO:79) conjugated to bovine serum albumin (hOPN5-BSA) was used. In a typical experiment, an ELISA plate was coated with 100 μl/well of 1 μg/ml hOPN-BSA in PBS overnight at 4° C., washed with Wash Buffer, and blocked with 300 μl/well of Blocking Buffer for 1 hr at room temperature. After washing with Wash Buffer, 100 μl/well of samples appropriately diluted in ELISA Buffer were applied to the ELISA plate. After incubating the ELISA plate overnight at 4° C. and washing with Wash Buffer, bound antibodies were detected using 100 μl/well of 1/2,000-diluted HRP-conjugated goat anti-human γ chain polyclonal antibody (SouthernBiotech). After incubating for 1 hr at room temperature and washing with Wash Buffer, color development was performed by adding 100 μl/well of ABTS substrate and stopped with 100 μl/well of 2% oxalic acid. Absorbance was read at 405 nm. As shown in FIG. 41A-41B, the binding of humanized 35B6 IgG1/κ to hOPN5-BSA was similar to (FIG. 41A) or indistinguishable from (FIG. 41B) that of chimeric 35B6 IgG1/κ.
Background: In an ELISA, binding on a coated surface is turned into a signal by an enzyme label.

For a further test, the target named is T2, peptide CGDSLAYGLR (murine, N-terminal Cys coupled to BSA via EMCS).
T2 peptide: CGDSLAYGLR
The test is described as follows: ELISA, BSA-coupled peptide coated at 10 ug/ml, HRP anti-murine IgG, A490.

In the next test the target is T3, peptide CGRGDSLAYGLR (murine, N-terminal Cys coupled to BSA via EMCS).
T3 construct: Synthetic peptide, BSA conjugate on the ELISA plate
T3 peptide: CGRGDSLAYGLR
The description is as above.

Test [2] concerns the target T1, hOPN5 peptide CVDTYDGRGDSVVYGLRS …. The description is as above.
Test [3] has as its target T4, mOPN5 peptide CVDVPNGRGDSLAYGLR (murine, N-terminal Cys coupled to BSA via EMCS (ELISA of section 6.2)).
T4 construct: BSA conjugate in section 6.2; 'antigen peptide solid phase' in the hybridoma screen of section 6.1; also called antigen peptide
T4 peptide: CVDVPNGRGDSLAYGLR
Described as above.

The next test has as its target T5, peptide CGDSLAYG (murine, N-terminal Cys coupled to BSA via EMCS).
T5 construct: Synthetic peptide, BSA conjugate on the ELISA plate
T5 peptide: CGDSLAYG
Described as above.

For test [4], the target named is T6, peptide CVDVPNGRGDS (murine, N-terminal Cys coupled to BSA via EMCS).
T6 construct: Synthetic peptide, BSA conjugate on the ELISA plate
T6 peptide: CVDVPNGRGDS
Nature of the test: ELISA, BSA-coupled peptide coated at 10 ug/ml. The text has this:
(§1) Peptides of amino acid sequence of […] (mOPN1) (SEQ ID NO:73), […] (mOPN5) (SEQ ID NO:71), […] (SEQ ID NO:74), CPNGRGD (SEQ ID NO:75), […] (SEQ ID NO: 76) […] (SEQ ID NO: 77), […] (SEQ ID NO:78) and […] (SEQ ID NO:72) which include murine OPN derived partial peptide, a peptide of amino acid sequence […] (SEQ ID NO:79) and […] (SEQ ID NO:80) which include human OPN derived partial peptide, and a peptide of amino acid sequence CGRGDS (SEQ ID NO:81) which include common peptide sequence of human OPN and murine OPN were coupled to BSA (Sigma corporation) via EMCS (Dojin) and used for ELISA.
(§2) A 96 well plate was immobilized with peptides (10 μg/ml) or proteins (5 μg/ml) by cultivating at 37° C. for an hour, blocked with 0.1% BSA/PBS/0.05% NaN₃ solution, and then reacted with various concentrations of antibodies at 37° C. for an hour. Next, the plate was reacted with HRP labeled anti-murine IgG antibody (Jackson ImmunoResearch Laboratories, Inc.) as secondary antibody at 37° C. for 30 minutes, added OPD as chromogen, added 1N H₂SO₄ to stop the reaction, and then detected absorbance at 490 nm.

Test [5] deals with T7, peptide CGRGDS (human and murine, N-terminal Cys coupled to BSA via EMCS).
T7 construct: Synthetic peptide, BSA conjugate on the ELISA plate
T7 peptide: CGRGDS
The test is described as follows: ELISA, BSA-coupled peptide coated at 10 ug/ml.
From the text: as §1, §2

Test [6] has as its target T8, peptide CPNGRGD (murine, N-terminal Cys coupled to BSA via EMCS).
T8 construct: Synthetic peptide, BSA conjugate on the ELISA plate
T8 peptide: CPNGRGD
Nature of the test: ELISA, BSA-coupled peptide coated at 10 ug/ml.
From the text: as §1, §2

The target in the next test is T9, murine osteopontin (murine, UniProt P10923 17-294).
T9 construct: mature; Secreted recombinant protein; also called mOPN; murine OPN
T9 sequence (P10923 17-294): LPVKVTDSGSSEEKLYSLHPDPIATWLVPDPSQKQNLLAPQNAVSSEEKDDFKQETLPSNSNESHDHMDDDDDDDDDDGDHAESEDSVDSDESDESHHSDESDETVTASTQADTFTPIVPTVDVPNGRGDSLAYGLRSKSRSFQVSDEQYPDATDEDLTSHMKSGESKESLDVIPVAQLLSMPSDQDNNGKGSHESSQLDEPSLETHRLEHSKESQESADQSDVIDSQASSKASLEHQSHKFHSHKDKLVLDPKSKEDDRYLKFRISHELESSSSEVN
The test is described as follows: ELISA, protein coated at 5 ug/ml, HRP anti-murine IgG, A490. On the procedure:
as §2, with “Binding ability of the monoclonal antibodies 33E10 and 35B6 to ECM proteins was detected by ELISA using 96 well plate immobilized with hOPN, mOPN, FN, VN or laminin obtained above. A 96” for “A 96”

For a further test, the target named is T10, human osteopontin (human, UniProt P10451 17-314).
T10 construct: mature; Secreted recombinant protein; also called hOPN; human OPN
T10 sequence (P10451 17-314): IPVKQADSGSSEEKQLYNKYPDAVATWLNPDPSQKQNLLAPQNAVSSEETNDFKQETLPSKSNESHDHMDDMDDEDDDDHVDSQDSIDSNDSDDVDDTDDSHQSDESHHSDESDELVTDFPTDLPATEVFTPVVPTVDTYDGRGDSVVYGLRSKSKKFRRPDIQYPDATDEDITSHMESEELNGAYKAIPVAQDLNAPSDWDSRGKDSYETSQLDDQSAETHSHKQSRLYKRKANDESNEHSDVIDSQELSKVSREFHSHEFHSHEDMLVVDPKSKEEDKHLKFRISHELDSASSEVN
Described as above. On the procedure:
as §2, with “Binding ability of the monoclonal antibodies 33E10 and 35B6 to ECM proteins was detected by ELISA using 96 well plate immobilized with hOPN, mOPN, FN, VN or laminin obtained above. A 96” for “A 96”

In test [7] the target is T6, peptide CVDVPNGRGDS
The test is described as follows: ELISA, BSA-coupled peptide coated at 10 ug/ml, HRP anti-murine IgG, A490.

The target of test [8] is T7, peptide CGRGDS. Described as above.
The target of test [9] is T8, peptide CPNGRGD. The test is described as above.
In the next test the target is T11, peptide CSVVYGLR (human, N-terminal Cys coupled to BSA via EMCS).
T11 construct: Synthetic peptide, BSA conjugate on the ELISA plate
T11 peptide: CSVVYGLR
Nature of the test: ELISA, BSA-coupled peptide coated at 10 ug/ml.
From the text: as §1, §2

The next test concerns the target T12, peptide CSLAYGLR (murine, N-terminal Cys coupled to BSA via EMCS).
T12 construct: Synthetic peptide, BSA conjugate on the ELISA plate
T12 peptide: CSLAYGLR
Nature of the test: ELISA, BSA-coupled peptide coated at 10 ug/ml.
From the text: as §1, §2

A further test addresses T13, human vitronectin (human, UniProt P04004 20-478).
T13 construct: Bought protein; also called VN
The test is described as follows: ELISA, protein coated at 5 ug/ml, HRP anti-murine IgG, A490. On the procedure:
as §2, with “Binding ability of the monoclonal antibodies 33E10 and 35B6 to ECM proteins was detected by ELISA using 96 well plate immobilized with hOPN, mOPN, FN, VN or laminin obtained above. A 96” for “A 96”

T13 sequence (P04004 20-478 limits assumed): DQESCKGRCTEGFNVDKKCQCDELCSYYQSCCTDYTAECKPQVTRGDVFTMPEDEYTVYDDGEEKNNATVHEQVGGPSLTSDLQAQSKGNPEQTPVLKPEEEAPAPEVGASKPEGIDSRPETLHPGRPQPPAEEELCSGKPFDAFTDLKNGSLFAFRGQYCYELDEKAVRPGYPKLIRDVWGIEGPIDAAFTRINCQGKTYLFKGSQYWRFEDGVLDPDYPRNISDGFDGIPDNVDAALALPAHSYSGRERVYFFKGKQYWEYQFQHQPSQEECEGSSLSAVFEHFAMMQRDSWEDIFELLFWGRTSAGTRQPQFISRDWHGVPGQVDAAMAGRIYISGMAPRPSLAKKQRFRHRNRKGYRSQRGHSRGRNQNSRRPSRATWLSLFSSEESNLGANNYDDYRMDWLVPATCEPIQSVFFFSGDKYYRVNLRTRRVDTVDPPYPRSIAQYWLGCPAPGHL

B1: humanized 35B6 IgG1/kappa antibody (antibody, V domains shown)
VH: QVQLVQSGAEVKKPGASVKVSCKASGYTFTNYWMHWVRQAPGQGLEWIGNINPRNGDSNYNEKFRSKASLTVDKSTSTVYMELSSLRSEDTAVYYCARGYFDVWGQGTTVTVSS
VL: DIQMTQSPSSLSASVGDRVTITCKASQDINSYLSWFQQKPGKAPKTLIYRANRLVDGVPSKFSGSGSGQDFTLTISSLQPEDFATYYCLQYDEFPFTFGQGTKLEIK
notes: Tested as culture supernatant of transiently transfected HEK293 cells; also called Hu35B6
In the case of B1, in test [1], the binding result is recorded as “binds”.

B2: mouse anti-RGD monoclonal antibody 35B6 (FERM BP-10441) (antibody, mouse IgG1, V domains shown)
VH: QVQLQQPGTELVKPGASVKLSCKASGYTFTNYWMHWVKQRPGQGLEWIGNINPRNGDSNYNEKFRSKASLTVDKSSSTVYMQLSSLTSEDSAVYYCARGYFDVWGTGTTVTVSS
VL: DIKMTQSPSSMYASLGERVSITCKASQDINSYLSWFQQKSGKSPKTLIYRANRLVDGVPSRFSGSGSGQDFSLTISSLEYEDMGIYYCLQYDEFPFTFGSGTKLEIK
notes: Mouse IgG1 from hybridoma
Regarding B2, the binding result in the test with peptide CGDSLAYGLR is reported as “binds”; with peptide CGRGDSLAYGLR it was “binds”; in [2], “binds”; in [3], “binds”; with peptide CGDSLAYG it was “binds”; with peptide CVDVPNGRGDS [4], “no binding”. Besides, the binding result with peptide CGRGDS [5] is listed as “no binding”; in the test with peptide CPNGRGD [6] it was “no binding”; in the test with murine osteopontin, “binds”; in the test with human osteopontin, “binds”.

B3: chimeric 35B6 IgG1/kappa antibody (antibody, V domains shown)
VH: QVQLQQPGTELVKPGASVKLSCKASGYTFTNYWMHWVKQRPGQGLEWIGNINPRNGDSNYNEKFRSKASLTVDKSSSTVYMQLSSLTSEDSAVYYCARGYFDVWGTGTTVTVSS
VL: DIKMTQSPSSMYASLGERVSITCKASQDINSYLSWFQQKSGKSPKTLIYRANRLVDGVPSRFSGSGSGQDFSLTISSLEYEDMGIYYCLQYDEFPFTFGSGTKLEIK
notes: Tested as culture supernatant of transiently transfected HEK293 cells; also called Ch35B6
Turning to B3, the binding result in test [1] is recorded as “binds”.

B4: mouse anti-RGD monoclonal antibody 33E10 (FERM BP-10440) (antibody, mouse IgG1, V domains shown)
VH: EVKLVESGGGLVQPGGSLSLSCAASGFTFTDYYMIWVRQPPGKALEWLGFIRNKANGYTTEYSASVKGRFTISRDNSQSILYLQMNALRAEDSATYYCARGAYWGQGTLVTVSA
VL: DVLMTQTPLSLPVSLGDQASISCRSSQSIVHSNGNTYLEWYLQKPGQSPKLLIYRVSNRFSGVPDRFSGSGSGTDFTLKISRVEAEDLGVYYCFQGSFVPWTFGGGTKLEIK
notes: Mouse IgG1 from hybridoma, purified on an antigen peptide column
Turning to B4, the binding result is reported as “binds” in the test with peptide CVDVPNGRGDS [7]; “binds” with peptide CGRGDS [8]; “binds” with peptide CPNGRGD [9]; “binds” in test [2]; “binds” in test [3]; “no binding” with peptide CSVVYGLR. Besides, the binding result in the test with peptide CSLAYGLR is given as “no binding”; with murine osteopontin, “binds”; in the test with human vitronectin it was “binds”; with human osteopontin it was “binds”.
